According to article PMC7841142:
Several values for one entry are separate records, joined by “and”; a condition that tells them apart may be missing. Equal values may be shown once.

T1: Fgfr1a-IIIc, membrane-bound, Myc- and 6x His-tagged (complete coding sequence), on CHO-K1 cells (zebrafish), Q90Z00
T1 chain: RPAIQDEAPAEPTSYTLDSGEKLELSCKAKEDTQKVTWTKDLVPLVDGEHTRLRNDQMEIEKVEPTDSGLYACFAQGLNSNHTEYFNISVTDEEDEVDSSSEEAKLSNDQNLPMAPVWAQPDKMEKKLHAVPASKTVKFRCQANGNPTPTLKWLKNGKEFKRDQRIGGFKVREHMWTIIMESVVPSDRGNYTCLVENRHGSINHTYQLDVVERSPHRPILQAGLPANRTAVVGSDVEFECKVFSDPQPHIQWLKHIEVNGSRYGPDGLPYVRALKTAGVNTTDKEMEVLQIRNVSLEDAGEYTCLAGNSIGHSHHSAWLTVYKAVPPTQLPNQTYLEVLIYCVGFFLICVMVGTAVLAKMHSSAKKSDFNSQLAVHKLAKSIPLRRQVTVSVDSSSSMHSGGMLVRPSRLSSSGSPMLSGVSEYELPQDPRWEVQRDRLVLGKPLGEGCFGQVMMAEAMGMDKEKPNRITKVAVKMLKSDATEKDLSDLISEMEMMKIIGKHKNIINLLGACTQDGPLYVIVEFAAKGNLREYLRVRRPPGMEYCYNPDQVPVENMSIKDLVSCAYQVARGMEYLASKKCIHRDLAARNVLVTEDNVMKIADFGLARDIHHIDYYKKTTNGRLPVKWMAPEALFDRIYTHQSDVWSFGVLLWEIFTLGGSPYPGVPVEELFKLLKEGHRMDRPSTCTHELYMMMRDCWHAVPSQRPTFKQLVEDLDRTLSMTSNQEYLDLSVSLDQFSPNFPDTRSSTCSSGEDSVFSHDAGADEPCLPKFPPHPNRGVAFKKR


Tests used:
[1] = biological target: Ncam1a, Myc- and 6x His-tagged (complete coding sequence), in Hek293 cells (zebrafish); test: co-IP; Hek293 cells co-transfected with Myc/His-tagged Ncam1a or Ncam1b and FLAG-tagged Fgfr1a-IIIb or -IIIc; lysates precipitated with anti-His antibody and ProteinA beads, blotted with biotinylated FLAG-antibody; band density by Fiji, three independent experiments
Chain of Ncam1a, Myc- and 6x His-tagged (complete coding sequence), in Hek293 cells (zebrafish) (main, as listed by the source): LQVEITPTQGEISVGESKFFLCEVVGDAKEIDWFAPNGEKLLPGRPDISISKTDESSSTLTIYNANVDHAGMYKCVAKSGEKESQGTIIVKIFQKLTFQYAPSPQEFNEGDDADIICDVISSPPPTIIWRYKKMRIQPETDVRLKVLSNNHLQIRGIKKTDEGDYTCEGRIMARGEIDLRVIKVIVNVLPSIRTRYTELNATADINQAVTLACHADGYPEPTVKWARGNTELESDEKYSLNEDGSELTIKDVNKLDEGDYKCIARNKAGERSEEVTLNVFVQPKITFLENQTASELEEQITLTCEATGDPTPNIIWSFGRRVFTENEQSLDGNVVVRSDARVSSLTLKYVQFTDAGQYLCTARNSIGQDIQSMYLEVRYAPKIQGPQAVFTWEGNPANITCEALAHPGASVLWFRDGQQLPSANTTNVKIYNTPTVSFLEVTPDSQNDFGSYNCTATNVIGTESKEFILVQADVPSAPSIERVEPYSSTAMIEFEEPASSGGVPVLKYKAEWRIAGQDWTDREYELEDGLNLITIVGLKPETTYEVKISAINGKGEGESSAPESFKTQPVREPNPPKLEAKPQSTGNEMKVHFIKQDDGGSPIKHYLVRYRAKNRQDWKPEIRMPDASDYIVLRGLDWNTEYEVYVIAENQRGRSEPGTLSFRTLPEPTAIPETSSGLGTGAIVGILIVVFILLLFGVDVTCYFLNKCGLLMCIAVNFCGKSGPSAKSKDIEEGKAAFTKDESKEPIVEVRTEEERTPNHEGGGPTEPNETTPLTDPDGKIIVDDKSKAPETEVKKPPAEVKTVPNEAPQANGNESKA

[2] = biological target: Ncam1b, Myc- and 6x His-tagged (complete coding sequence), in Hek293 cells (zebrafish); test: as above
[3] = biological target: Fgfr1a-IIIb, membrane-bound, Myc- and 6x His-tagged (complete coding sequence, exon 9.1 variant), on CHO-K1 cells (zebrafish); test: immunostaining of cells or tissue; cell overlay assay: transfected CHO-K1 cells (membrane-bound His-tagged protein) on fibronectin-coated coverslips incubated with 20 μg/ml soluble Fc-tagged protein for 1 h at room temperature, washed, fixed, stained with anti-His and anti-hFcγ; read out as binding coefficient (percent of transfected cells co-labelled) and as fluorescence intensity of transfected vs. untransfected cells
[4] = biological target: Ncam1b, membrane-bound, Myc- and 6x His-tagged (complete coding sequence), on CHO-K1 cells (zebrafish); test: as above
[5] = biological target: T1, Fgfr1a-IIIc, membrane-bound, Myc- and …; test: immunostaining of cells or tissue; cell overlay assay: transfected CHO-K1 cells (membrane-bound His-tagged protein) on fibronectin-coated coverslips incubated with 20 μg/ml soluble Fc-tagged protein for 1 h at room temperature, washed, fixed, stained with anti-His and anti-hFcγ; read out as binding coefficient (percent of transfected cells co-labelled) and as fluorescence intensity of transfected vs. untransfected …

Row | band density (Intensity Density) of co-precipitated FLAG-tagged receptor (Intensity Density) [1] | band density (Intensity Density) of co-precipitated FLAG-tagged receptor (Intensity Density) [2] | binding coefficient (percent of transfected cells co-labelled for the soluble partner) [4] [%] | Molecule | other results
1 | 117000 | 138000 | – | Fgfr1a-IIIc, FLAG-tagged (complete coding sequence), in Hek293 cells (from UniProt Q90Z00 27-810) (receptor) | –
2 | 89500 | 170000 and 203000 | – | Fgfr1a-IIIb, FLAG-tagged (complete coding sequence), in Hek293 cells (receptor) | –
3 | – | – | – | soluble Ncam1b-Fc (extracellular part of Ncam1b with hIgG-Fc-Tag) (Fc fusion) | binding coefficient (percent of transfected cells co-labelled for the soluble partner) [3]: 90%; fluorescence intensity of bound soluble Ncam1b, transfected over untransfected cells [3]: 80 % higher
4 | – | – | 60 | soluble Fgfr1a-IIIc-Fc (extracellular part of Fgfr1a-IIIc with hIgG-Fc-Tag) (from UniProt Q90Z00 27-363) (Fc fusion) | –
5 | – | – | 90 | soluble Fgfr1a-IIIb-Fc (extracellular part of Fgfr1a-IIIb with hIgG-Fc-Tag) (Fc fusion) | –
6 | – | – | – | soluble Ncam1b-Fc (extracellular part of Ncam1b with hIgG-Fc-Tag) (Fc fusion, modifications not checked) LQVDITPAHGEISVGESRFFLCEVIGGAKEIDWFAPAGEKIEPGRPDISVIRNDETSSTLTIYNAKVDNAGTYRCVASSGDQDAEATVNLKIYQKITFTNVPSPQEFTEGDNAIIVCDVISSPPPTVLWKYKGAKIQFDKDVRFKTLSNNHLQIRGIRKTDEGVYTCEGRIKARGEVDFRSIKVVVNVLPTIRIRQAETNATADMGFSTLLACDPDGFPEPIVTWRRNNAPLESGNKYSFNEDGSEMTVLDVTKLDEGDYTCIAKNKAGESEQELSLKVFVQPKITYLESQTTTEMDEQVTLTCEATGDPTPTITWSFGTRVFTEGEQASWTRPEQHKGPDGEVLVRSDARVSSLTLKYPQYTDAGQYLCTARNAIGETVQPVSLEVRYAPKILGSVAVYTWEGNPANISCEVLAHPSDVSITWLRDGFQLPNANTSNIKIHNTPSASYLEVNPESQSDFGNYNCTASNEIGTESREFIMIPADVPSAPSIGEVQPYSSTAQVLFEEPESTGGVPVLKYRAEWRAVGRGKWVQRVYEVKDGLSSVTVTGLKPETDYEVKMSAINGKGEGDSSPSMVFKTEHVQGEPSPPILEGTLQPKGNSLKVKWIKQDDGGSPITHYLVRYKAREDSEWKPEIRLPSGSEYVMLIGLDWDTEYDVFVVAENQQGKSKPGTLTFRTSSEPTATTDSMEDGPGLNTG | binding coefficient (percent of transfected cells co-labelled for the soluble partner) [5]: 60%
